Data from US20050037444A1 (INTERCELL, published 2005).

B1: p6-30 of Seq ID 142 (LPXTGVI) (peptide)
peptide: KEFKSFYSIRKSSLGVASVAISTL
notes: synthetic peptide
B2: p209-233 of Seq ID 142 (LPXTGVI) (peptide)
peptide: IKLVSYDTVKDYAYIRFSVSNGTKA
notes: synthetic peptide
B3: p218-244 of Seq ID 142 (LPXTGVI) (peptide)
peptide: KDYAYIRFSVSNGTKAVKIVSSTHFNN
notes: synthetic peptide
B4: p6-28 of Seq ID 56 (LPXTGV) (peptide)
peptide: PKLRSFYSIRKSTLGVASVIVST
notes: synthetic peptide
B5: p620-646 of Seq ID 56 (LPXTGV) (peptide)
peptide: FPYIPDKAVYNAIVKVVVANIGYEGQ
notes: synthetic peptide
B6: p240-260 of Seq ID 74 (ORF1hom1) (peptide)
peptide: MNYGYGPGVVTSRTISASQA
notes: synthetic peptide
B7: p4-29 of Seq ID 94 (EMPBP) (peptide)
peptide: KLLVLTMSTLFATQIMNSNHAKASV
notes: synthetic peptide
B8: p254-270 of Seq ID 94 (EMPBP) (peptide)
peptide: MHVPSFQNNTTATHQN
notes: synthetic peptide
B9: p275-299 of Seq ID 94 (EMPBP) (peptide)
peptide: YDYKYFYSYKVVKGVKKYFSFSQS
notes: synthetic peptide
B10: p284-305 of Seq ID 94 (EMPBP) (peptide)
peptide: YKVVKGVKKYFSFSQSNGYKIG
notes: synthetic peptide
B11: p306-326 of Seq ID 94 (EMPBP) (peptide)
peptide: PSLNIKNVNYQYAVPSYSPT
notes: synthetic peptide
B12: p24-40 of Seq ID 56 (LPXTGV) (peptide)
peptide: VIVSTLFLISQHQAQA
notes: synthetic peptide
B13: p623-647 of Seq ID 142 (LPXTGVI) (peptide)
peptide: MTLPLMALLALSSIVAFVLPRKRKN
notes: synthetic peptide
B14: p871-896 of Seq ID 56 (LPXTGV) (peptide)
peptide: QSWWGLYALLGMLALFIPKFRKESK
notes: synthetic peptide
B15: p96-121 of Seq ID 89 (ORF1hom2) (peptide)
peptide: GESLNIIASRYGVSVDQLMAANNLRG
notes: synthetic peptide
B16: p117-136 of Seq ID 89 (ORF1hom2) (peptide)
peptide: NNLRGYLIMPNQTLQIPNG
notes: synthetic peptide
B17: p226-251 of Seq ID 94 (EMPBP) (peptide)
peptide: IKINHFCVVPQINSFKVIPPYGHNS
notes: synthetic peptide
B18: p23-47 of Seq ID 114 (POV2) (peptide)
peptide: AGGIFYNQTNQQLLVLCDGMGGHK
notes: synthetic peptide
B19: p107-124 of Seq ID 114 (POV2) (peptide)
peptide: ALVFEKSVVIANVGDSRA
notes: synthetic peptide
B20: p395-418 of Seq ID 142 (LPXTGVI) (peptide)
peptide: FMVEGQRVRTISTYAINNTRCTIF
notes: synthetic peptide
B21: p416-428 of Seq ID 142 (LPXTGVI) (peptide)
peptide: TIFRYVEGKSLYE
notes: synthetic peptide

Target: T1, soluble HLA class II molecule DRA1*0101/DRB1*0401 (human, UniProt P01903 26-216; P01911 30-227, limits assumed)
T1 construct: Recombinant soluble MHC class II heterodimer expressed in SC-2 cells (as in Aichinger et al., 1997); also called soluble DRA1*0101/DRB1*0401 molecules
T1 MHC II alpha: not shown
T1 MHC II beta: not shown
Test: competition assay vs biotinylated UD4, L243 capture ELISA

Q: Does B1 bind?
A: binds

Q: Does B2 bind?
A: binds

Q: Does B3 bind?
A: binds

Q: Does B4 bind?
A: binds

Q: Does B5 bind?
A: binds

Q: Does B6 bind?
A: binds

Q: Does B7 bind?
A: binds

Q: Does B8 bind?
A: binds

Q: Does B9 bind?
A: binds

Q: Does B10 bind?
A: binds

Q: Does B11 bind?
A: binds

Q: Does B12 bind?
A: no binding (tested: 200 µM)

Q: Does B13 bind?
A: no binding (tested: 200 µM)

Q: Does B14 bind?
A: no binding (tested: 200 µM)

Q: Does B15 bind?
A: no binding (tested: 200 µM)

Q: Does B16 bind?
A: no binding (tested: 200 µM)

Q: Does B17 bind?
A: no binding (tested: 200 µM)

Q: Does B18 bind?
A: no binding (tested: 200 µM)

Q: Does B19 bind?
A: no binding (tested: 200 µM)

Q: Does B20 bind?
A: no binding (tested: 200 µM)

Q: Does B21 bind?
A: no binding (tested: 200 µM)
